Series [1] concerns the target T1, recombinant human tissue transglutaminase (human, UniProt P21980 1-687, limits assumed).
T1 construct: also called tTGase; tTG
T1 sequence (looked up): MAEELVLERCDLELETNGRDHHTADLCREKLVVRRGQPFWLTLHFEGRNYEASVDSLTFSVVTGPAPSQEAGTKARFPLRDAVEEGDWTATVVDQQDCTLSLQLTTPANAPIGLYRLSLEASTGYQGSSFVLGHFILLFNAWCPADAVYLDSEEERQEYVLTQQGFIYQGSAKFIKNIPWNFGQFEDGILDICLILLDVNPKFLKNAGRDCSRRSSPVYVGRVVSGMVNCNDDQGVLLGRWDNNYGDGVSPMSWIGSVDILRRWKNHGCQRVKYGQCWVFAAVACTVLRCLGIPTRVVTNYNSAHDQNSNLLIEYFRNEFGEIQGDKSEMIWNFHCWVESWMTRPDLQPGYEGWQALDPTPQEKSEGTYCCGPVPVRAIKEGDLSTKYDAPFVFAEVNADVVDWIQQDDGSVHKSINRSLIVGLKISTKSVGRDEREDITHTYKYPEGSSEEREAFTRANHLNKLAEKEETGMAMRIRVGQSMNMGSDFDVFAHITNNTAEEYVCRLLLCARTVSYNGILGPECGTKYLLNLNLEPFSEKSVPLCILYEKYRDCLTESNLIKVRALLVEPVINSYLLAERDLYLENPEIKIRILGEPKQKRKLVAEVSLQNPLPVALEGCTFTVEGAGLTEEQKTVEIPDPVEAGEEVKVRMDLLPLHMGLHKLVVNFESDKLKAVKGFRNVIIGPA
Nature of the series: time-dependent inactivation of tTG (9 uM) by 0-600 uM inhibitor; residual activity by glutamate dehydrogenase-coupled assay at 340 nm; double-reciprocal plot.

The target of series [2] is T1, recombinant human tissue …. Nature of the series: time-dependent inactivation of tTG; residual activity by glutamate dehydrogenase-coupled assay at 340 nm; double-reciprocal plot.
The target of another series is T2, Ac-PQPQLPF-NH2.
T2 chain: PQPQLPF

For a further series, the target named is T3, PQPQLPY.
T3 chain: PQPQLPY

*1 amine or outer side, *2 acyl side, *3 side chain or, on linkers, in order; H or OH if unused. Where no end group is shown, it is not given here. [ ]: non-standard residue; d: D form. Aci = acivicin, (2S)-amino[(5S)-3-chloro-4,5-dihydroisoxazol-5-yl]acetic acid, O=C([C@@H](N[*:1])[C@@H]1CC(Cl)=NO1)[*:2]; DON = [N-]=[N+]=CC(=O)CC[C@H](N)C(=O)O

A word on the KM: it is the concentration of substrate that gives half-maximal velocity. Broadly, the kcat is the number of substrate molecules converted per active site and unit of time at saturation.

B1: Pro-Gln-Pro-Aci-Leu-Pro-Tyr (peptide)
peptide: PQP[Aci]LPY
notes: Free termini; also called PQPAciLPY; PQP-X-LPY with X = Aci
For the molecule B1, the Ki in series [1] was 780 µM.

B2: Ac-Pro-Gln-Pro-Don-Leu-Pro-Phe-NH2 (peptide)
peptide: Ac-PQP[DON]LPF-NH2
SMILES: CC(=O)N1CCC[C@H]1C(=O)N[C@@H](CCC(N)=O)C(=O)N1CCC[C@H]1C(=O)N[C@@H](CCC(=O)C=[N+]=[N-])C(=O)N[C@@H](CC(C)C)C(=O)N1CCC[C@H]1C(=O)N[C@@H](Cc1ccccc1)C(N)=O
notes: here X = DON; also called Ac-PQP-X-LPF-NH2 with X = DON; compound 41
As for B2, the Ki in series [2] turned out to be 70 nM.

B3: recombinant human tissue transglutaminase (protein)
chain: MAEELVLERCDLELETNGRDHHTADLCREKLVVRRGQPFWLTLHFEGRNYEASVDSLTFSVVTGPAPSQEAGTKARFPLRDAVEEGDWTATVVDQQDCTLSLQLTTPANAPIGLYRLSLEASTGYQGSSFVLGHFILLFNAWCPADAVYLDSEEERQEYVLTQQGFIYQGSAKFIKNIPWNFGQFEDGILDICLILLDVNPKFLKNAGRDCSRRSSPVYVGRVVSGMVNCNDDQGVLLGRWDNNYGDGVSPMSWIGSVDILRRWKNHGCQRVKYGQCWVFAAVACTVLRCLGIPTRVVTNYNSAHDQNSNLLIEYFRNEFGEIQGDKSEMIWNFHCWVESWMTRPDLQPGYEGWQALDPTPQEKSEGTYCCGPVPVRAIKEGDLSTKYDAPFVFAEVNADVVDWIQQDDGSVHKSINRSLIVGLKISTKSVGRDEREDITHTYKYPEGSSEEREAFTRANHLNKLAEKEETGMAMRIRVGQSMNMGSDFDVFAHITNNTAEEYVCRLLLCARTVSYNGILGPECGTKYLLNLNLEPFSEKSVPLCILYEKYRDCLTESNLIKVRALLVEPVINSYLLAERDLYLENPEIKIRILGEPKQKRKLVAEVSLQNPLPVALEGCTFTVEGAGLTEEQKTVEIPDPVEAGEEVKVRMDLLPLHMGLHKLVVNFESDKLKAVKGFRNVIIGPA
B3: in the series with Ac-PQPQLPF-NH2, the KM was 400 µM, the kcat worked out at 40 min⁻¹ and the kcat/KM is 97000 min^-1M^-1. For the same molecule, in the series with PQPQLPY, the Michaelis-Menten constant (KM) worked out at 300 µM and the turnover number (kcat) was found to be 28 min⁻¹.

Values taken from US7605150 (Stanford University, dated 2009).
